# Assay results taken from patent US20240002501A1 (Memorial Sloan Kettering, published 2024).
# Positions count from the first letter of the chain named. Like-named read-outs stand apart in the source and are kept apart here.
# B1: E71 (antibody, V domains shown)
# VH: QVQLQQPGDELVKPGASVKLSCKASGYTFTSYWMQWVKQRPGQGLEWIGEINPSNGRTNYNEMFKSKATLTVDKSSSTAYMQLSSLTSEDSAVYYCALYDGYYAMDYWGQGTSVTVSS
# VL: DIVMSQSPSSLAVSVGEKVTMSCKSSQSLLYSSNQKNYLAWYQQKPGQSPKLLIYWASTRESGVPDRFTGSGSGTDFTLTISSVKAEDLALYYCQQYHSYPFTFGSGTKLEIK
# notes: parental murine anti-L1-CAM antibody; also called mouse E71; murine E71; copies: 2 + 2
# B2: huE71-H2L1 (antibody, human IgG1, kappa, V domains shown)
# VH: QVQLVQSGSELKKPGASVKLSCKASGYTFTSYWMQWVRQAPGQGLEWIGEINPSNGRTNYNEMFKSRAVLSVDTSVSTAYMQLCSLKAEDTAVYYCALYDGYYAMDYWGQGTLVTVSS
# VL: DIVMTQSPSSLAVSVGERVTMSCKSSQSLLYSSNQKNYLAWYQQKPGQSPKLLIYWASTRESGVPDRFSGSGSGTDFTLTISSVKAEDVALYYCQQYHSYPFTFGQGTKLEIKR
# B3: huE71-H1L2 (antibody, human IgG1, kappa, V domains shown)
# VH: B1 VH with Q5V, T69V, T71S, S76V, S88A, S91T, S113L
# VL: B2 VL with S9D, V15L, S22N, S49P, V84L, K85Q
# B4: huE71-H2L2 (antibody, human IgG1, kappa, V domains shown)
# VH: B2 VH
# VL: B2 VL with S9D, V15L, S22N, S49P, V84L, K85Q
# B5: huE72-BsAb (huE72-huOKT3) (bispecific antibody, human IgG1, kappa, N297A)
# heavy: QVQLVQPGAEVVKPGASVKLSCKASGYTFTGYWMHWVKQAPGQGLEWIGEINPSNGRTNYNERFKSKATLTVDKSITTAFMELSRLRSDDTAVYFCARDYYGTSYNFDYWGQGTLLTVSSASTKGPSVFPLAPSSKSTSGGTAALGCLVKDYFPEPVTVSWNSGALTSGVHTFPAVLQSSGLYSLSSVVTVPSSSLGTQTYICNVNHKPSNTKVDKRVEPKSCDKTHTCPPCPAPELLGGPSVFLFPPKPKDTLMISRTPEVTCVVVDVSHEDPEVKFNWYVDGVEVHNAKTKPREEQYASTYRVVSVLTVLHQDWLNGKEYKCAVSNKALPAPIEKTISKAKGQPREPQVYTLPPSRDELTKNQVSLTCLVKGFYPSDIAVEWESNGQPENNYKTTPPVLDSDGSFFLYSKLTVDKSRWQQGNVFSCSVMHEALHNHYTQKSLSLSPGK
# light: DIQMTQSPSSLSVSVGDRVTITCKANEDINNRLAWYQQKPGKAPKLLISGATNLVTGVPSRFSGSGSGTDYTLTISSLQPEDFATYYCQQYWSTPFTFGQGTELEIKRTVAAPSVFIFPPSDEQLKSGTASVVCLLNNFYPREAKVQWKVDNALQSGNSQESVTEQDSKDSTYSLSSTLTLSKADYEKHKVYACEVTHQGLSSPVTKSFNRGECTSGGGGSGGGGSGGGGSQVQLVQSGGGVVQPGRSLRLSCKASGYTFTRYTMHWVRQAPGKCLEWIGYINPSRGYTNYNQKFKDRFTISRDNSKNTAFLQMDSLRPEDTGVYFCARYYDDHYSLDYWGQGTPVTVSSGGGGSGGGGSGGGGSGGGGSGGGGSGGGGSDIQMTQSPSSLSASVGDRVTITCSASSSVSYMNWYQQTPGKAPKRWIYDTSKLASGVPSRFSGSGSGTDYTFTISSLQPEDIATYYCQQWSSNPFTFGCGTKLQITR
# notes: IgG-scFv format with huOKT3 scFv on the light chain; also called humanized E72-BsAb
# B6: huE72-IgG1 (huE72 H1/L2) (antibody, V domains shown)
# VH: QVQLVQPGAEVVKPGASVKLSCKASGYTFTGYWMHWVKQAPGQGLEWIGEINPSNGRTNYNERFKSKATLTVDKSITTAFMELSRLRSDDTAVYFCARDYYGTSYNFDYWGQGTLLTVSS
# VL: DIQMTQSPSSLSVSVGDRVTITCKANEDINNRLAWYQQKPGKAPKLLISGATNLVTGVPSRFSGSGSGTDYTLTISSLQPEDFATYYCQQYWSTPFTFGQGTELEIKR
# notes: Human IgG1; also called humanized E72 IgG1
# B7: E72-H1L1 (antibody, human IgG1, kappa, V domains shown)
# VH: B6 VH
# VL: B6 VL with P8S, L11F, A43S, K45R, P80A
# notes: also called huE72 H1/L1
# B8: E72-H2L1 (antibody, human IgG1, kappa, V domains shown)
# VH: B6 VH with V12K, K38R, K67R, T77S, F80Y
# VL: B6 VL with P8S, L11F, A43S, K45R, P80A
# notes: also called huE72 H2/L1
# B9: E72-H2L2 (antibody, human IgG1, kappa, V domains shown)
# VH: B6 VH with V12K, K38R, K67R, T77S, F80Y
# VL: B6 VL
# notes: also called huE72 H2/L2
# Tests used:
# [1] = target: T1, L1-CAM-Fc (UniProt P32004 20-1120, limits assumed); test: SPR (Biacore T100), L1-CAM-Fc immobilised on CM5 chip
# T1 construct: also called antigen L1-CAM-Fc; not shown: Fc part
# T1 sequence (P32004 20-1120 limits assumed): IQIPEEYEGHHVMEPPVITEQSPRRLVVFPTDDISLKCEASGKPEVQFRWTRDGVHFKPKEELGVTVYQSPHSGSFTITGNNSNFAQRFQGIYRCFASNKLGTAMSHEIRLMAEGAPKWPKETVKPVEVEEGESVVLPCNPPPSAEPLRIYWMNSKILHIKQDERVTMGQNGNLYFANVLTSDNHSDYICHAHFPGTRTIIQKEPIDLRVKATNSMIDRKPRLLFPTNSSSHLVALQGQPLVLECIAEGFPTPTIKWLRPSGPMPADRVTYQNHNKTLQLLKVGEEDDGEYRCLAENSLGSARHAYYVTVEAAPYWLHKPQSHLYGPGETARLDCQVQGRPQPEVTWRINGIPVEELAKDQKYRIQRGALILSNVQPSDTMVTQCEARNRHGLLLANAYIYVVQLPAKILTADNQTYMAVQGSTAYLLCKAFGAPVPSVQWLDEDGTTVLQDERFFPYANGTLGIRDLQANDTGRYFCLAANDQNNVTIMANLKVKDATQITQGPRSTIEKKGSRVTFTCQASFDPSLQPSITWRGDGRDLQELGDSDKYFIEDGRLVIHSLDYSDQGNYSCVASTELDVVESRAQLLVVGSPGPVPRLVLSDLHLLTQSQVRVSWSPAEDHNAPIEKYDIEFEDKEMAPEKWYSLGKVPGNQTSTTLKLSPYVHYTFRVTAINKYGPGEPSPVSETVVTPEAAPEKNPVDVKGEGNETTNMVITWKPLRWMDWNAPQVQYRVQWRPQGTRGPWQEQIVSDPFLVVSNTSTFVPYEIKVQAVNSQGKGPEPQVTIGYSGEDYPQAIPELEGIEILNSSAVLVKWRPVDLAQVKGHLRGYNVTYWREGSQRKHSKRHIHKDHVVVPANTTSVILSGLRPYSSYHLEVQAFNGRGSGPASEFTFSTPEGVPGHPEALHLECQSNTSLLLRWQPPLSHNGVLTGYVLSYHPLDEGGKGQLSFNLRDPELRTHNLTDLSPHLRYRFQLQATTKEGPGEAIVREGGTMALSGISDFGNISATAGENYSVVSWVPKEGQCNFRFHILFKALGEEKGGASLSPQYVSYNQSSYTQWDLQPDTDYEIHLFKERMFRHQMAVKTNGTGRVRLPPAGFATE
# Method: (§1) In Vitro Binding Kinetics by Biacore T-100 Biosensor (GE Healthcare, Uppsala, Sweden). CM5 sensor chip (Research grade) and related reagents were purchased from Biacore USA (Piscataway, NJ). Antigen L1-CAM-Fc or L1-CAM-His was directly immobilized onto the CM5 sensor chip according to the manufacturer's instructions. Purified monoclonal antibodies (MoAbs) (mouse, chimeric IgG1 and IgG4, and humanized IgG1 and IgG4 versions of E71 and E72, and their IgG1n glycoforms) were diluted in HBS-EP buffer at varying concentrations (41.7˜666.7 nM) prior to analysis. Samples were injected over the sensor surface at a flow rate of 30 μl/min over 1 min. Association time was set for 1 min, dissociation time was set for from 5 min to 15 min. At the end of each cycle, the surface was regenerated using 50 mM NaOH at a flow rate of 50 μl/min over 1 min. The data were analyzed by the bivalent analyte model and default parameter setting for the rate constants using the Biacore T-100 evaluation software, and the apparent association on rate constant (kₒₙ), dissociation off rate constant (koff) and equilibrium dissociation constant (Kd=koff/kₒₙ) were calculated.
# [2] = target: T1, L1-CAM-Fc; test: as above; remark: listed apart in the source
# Method: as §1
# The binding of huE71-BsAb and huE72-BsAb to both target cells and effector cells was tested by FACS immunostaining. huE71-BsAb was equally efficient as parental huE71 in binding to L1-CAM(+) neuroblastoma BE(2)C, whereas the binding of huE72-BsAb to BE(2)C was half of that observed with huE71-BsAb (FIG. 38(A)). For binding to CD3(+) T cells, both huE71-BsAb and huE72-BsAb were less efficient compared to huOKT3 IgG1; around 20 fold weaker than huOKT3 (FIG. 38(B)). The reduced avidity of the light chain-anchored scFv of the BsAbs for T cells was attributable in part to the spatial constraints of this format, but is advantageous for minimizing cytokine release especially when target cells were not present.
# [3] = target: T2, L1-CAM on L1-CAM(+) human tumor cells (human, UniProt P32004 20-1257); test: cell-based or functional assay
# T2 sequence (P32004 20-1257 limits assumed): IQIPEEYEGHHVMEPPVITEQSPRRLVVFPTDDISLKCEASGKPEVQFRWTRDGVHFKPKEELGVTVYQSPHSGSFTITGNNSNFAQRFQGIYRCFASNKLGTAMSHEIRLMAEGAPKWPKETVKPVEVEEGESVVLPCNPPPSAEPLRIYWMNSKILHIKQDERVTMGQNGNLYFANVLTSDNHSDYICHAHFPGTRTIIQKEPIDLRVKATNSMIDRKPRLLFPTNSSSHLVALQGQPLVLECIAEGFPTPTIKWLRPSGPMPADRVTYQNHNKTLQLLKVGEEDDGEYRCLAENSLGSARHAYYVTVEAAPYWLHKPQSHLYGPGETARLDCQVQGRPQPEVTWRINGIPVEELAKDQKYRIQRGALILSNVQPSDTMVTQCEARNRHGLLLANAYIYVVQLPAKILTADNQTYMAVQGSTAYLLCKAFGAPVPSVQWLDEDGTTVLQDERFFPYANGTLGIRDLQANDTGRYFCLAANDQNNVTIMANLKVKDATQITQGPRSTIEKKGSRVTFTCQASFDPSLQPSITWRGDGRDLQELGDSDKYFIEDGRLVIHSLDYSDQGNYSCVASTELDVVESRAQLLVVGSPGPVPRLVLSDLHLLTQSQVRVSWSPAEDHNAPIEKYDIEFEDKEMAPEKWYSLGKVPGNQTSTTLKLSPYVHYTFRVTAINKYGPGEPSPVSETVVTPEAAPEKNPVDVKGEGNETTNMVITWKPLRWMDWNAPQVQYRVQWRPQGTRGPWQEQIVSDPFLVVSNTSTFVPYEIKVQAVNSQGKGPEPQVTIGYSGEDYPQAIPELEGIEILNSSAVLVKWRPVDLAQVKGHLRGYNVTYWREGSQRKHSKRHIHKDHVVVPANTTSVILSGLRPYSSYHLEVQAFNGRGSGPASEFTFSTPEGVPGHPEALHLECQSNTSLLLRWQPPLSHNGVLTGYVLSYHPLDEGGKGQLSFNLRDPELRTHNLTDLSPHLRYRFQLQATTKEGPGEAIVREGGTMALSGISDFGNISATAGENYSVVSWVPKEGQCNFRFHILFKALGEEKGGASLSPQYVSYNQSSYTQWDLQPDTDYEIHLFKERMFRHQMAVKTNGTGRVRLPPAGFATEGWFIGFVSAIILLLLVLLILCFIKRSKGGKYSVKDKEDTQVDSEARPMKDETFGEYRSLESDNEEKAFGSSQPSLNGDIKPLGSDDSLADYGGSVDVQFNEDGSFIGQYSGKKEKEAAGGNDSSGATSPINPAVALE
# [4] = target: T2, L1-CAM on L1-CAM(+) human tumor cells; test: cell-based or functional assay; remark: listed apart in the source
# [5] = target: T3, CD3 on CD3(+) T cells (UniProt P07766 23-207); test: FACS immunostaining of CD3(+) T cells
# T3 construct: whole, on cells; CD3 is a complex of several chains
# T3 sequence (P07766 23-207): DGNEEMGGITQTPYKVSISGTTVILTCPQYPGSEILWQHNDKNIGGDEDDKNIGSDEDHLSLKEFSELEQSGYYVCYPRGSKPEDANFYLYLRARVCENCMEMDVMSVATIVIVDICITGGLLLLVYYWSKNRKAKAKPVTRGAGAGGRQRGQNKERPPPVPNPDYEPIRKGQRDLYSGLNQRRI
# [6] = target: T4, L1-CAM-His; test: SPR (Biacore T100), L1-CAM-His immobilised on CM5 chip
# T4 construct: recombinant soluble His-tagged antigen immobilised on the CM5 chip; also called antigen L1-CAM-His
# T4 sequence (P32004 20-1120): as the sequence (P32004 20-1120 limits assumed) above
# Method: as §1
binder,measurement,setting,value
B1,Kd,[1],314 pM
same,Kd,[2],2230 pM
same,koff,[2],0.000199 s⁻¹
same,kon,[2],89300 M⁻¹ s⁻¹
B2,Kd,[1],4260 pM
B3,Kd,[1],517 pM
B4,Kd,[1],2720 pM
B5,"T cell cytotoxicity EC50, 4-hour 51Cr release assay, activated T cells (E:T ratio=10:1), IMR32-luciferase cell line",[3],50 pM
same,"EC50 of T cell cytotoxicity (4 h 51Cr release, E:T 10:1) on BE(1)N neuroblastoma cells (L1CAM MFI 614)",[4],14 pM
same,"EC50 of T cell cytotoxicity (4 h 51Cr release, E:T 10:1) on BE(2)C neuroblastoma cells (L1CAM MFI 608)",[4],50 pM
same,"EC50 of T cell cytotoxicity (4 h 51Cr release, E:T 10:1) on BE(2)S neuroblastoma cells (L1CAM MFI 166)",[4],251 pM
same,"EC50 of T cell cytotoxicity (4 h 51Cr release, E:T 10:1) on HTB24 breast CA cells (L1CAM MFI 431)",[4],27 pM
same,"EC50 of T cell cytotoxicity (4 h 51Cr release, E:T 10:1) on HTB26 breast CA cells (L1CAM MFI 33)",[4],56 pM
same,"EC50 of T cell cytotoxicity (4 h 51Cr release, E:T 10:1) on IMR32 LUC neuroblastoma cells (L1CAM MFI 285)",[4],50 pM
same,"EC50 of T cell cytotoxicity (4 h 51Cr release, E:T 10:1) on MCF7 breast CA cells (L1CAM MFI 54)",[4],100 pM
same,"EC50 of T cell cytotoxicity (4 h 51Cr release, E:T 10:1) on NB1691 neuroblastoma cells (L1CAM MFI 742)",[4],31 pM
same,"EC50 of T cell cytotoxicity (4 h 51Cr release, E:T 10:1) on NMB7 neuroblastoma cells (L1CAM MFI 224)",[4],46 pM
same,"EC50 of T cell cytotoxicity (4 h 51Cr release, E:T 10:1) on SKMEL5 melanoma cells (L1CAM MFI 269)",[4],27 pM
same,"EC50 of T cell cytotoxicity (4 h 51Cr release, E:T 10:1) on SKMEL28 melanoma cells (L1CAM MFI 184)",[4],140 pM
same,"EC50 of T cell cytotoxicity (4 h 51Cr release, E:T 10:1) on SKNMM LUC neuroblastoma cells (L1CAM MFI 598)",[4],71 pM
same,"EC50 of T cell cytotoxicity (4 h 51Cr release, E:T 10:1) on SKNSH neuroblastoma cells (L1CAM MFI 23)",[4],158 pM
same,fold weaker binding than huOKT3 IgG1,[5],~20 fold
same,Kd,[2],5280 pM
same,koff,[2],0.000189 s⁻¹
same,kon,[2],35800 M⁻¹ s⁻¹
B6,Kd,[1],252 pM
same,Kd,[2],1880 pM
same,koff,[2],0.000139 s⁻¹
same,kon,[2],74000 M⁻¹ s⁻¹
same,Kd,[6],270 pM
B7,Kd,[1],89.3 pM
same,Kd,[6],114 pM
B8,Kd,[1],353 pM
same,Kd,[6],355 pM
B9,Kd,[1],536 pM
same,Kd,[6],667 pM
